From the nanobody polyreactivity screen of Harvey et al. (2022)

Assay: yeast display, Sf9 membrane polyspecificity reagent, FACS + sequencing; frameworks hold sequencing errors
Method in brief: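 Polyreactivity labels are assigned by the sorting gate from which each nanobody was recovered. The gates were low and high (top ~1%), set on anti-HA fluorescence for expression and streptavidin fluorescence for reagent binding. Before sorting, galactose-induced (36–48 hours) yeast display cells were stained for 1 hour at 4 °C with 10% biotinylated, detergent-solubilized Sf9 membrane reagent.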

| Sequence | polyreactivity (PSR sort gate) |
| --- | --- |
| QVQLVESGGGLVQAGGSLRLSCAASGLIFYRYTMGWYRQAPGKERELVAAITSTGTSTYYADSVKGRFTISRDNAKNTVYLQMNSLKPEDTAVYYCAARYIARGKWDYDYWGQGTQVTVSS | high polyreactivity |
| QVQLVESGGGLVQAGGRLRLSCAASGSTFATYAMGWYRQAPGKERELVAVISRSGGSTYYADSVKGRFTISRDNAKNTVYLQMNCLKPEDTAVYYCAARPRGKYDYRGQGTQVTVSS | high polyreactivity |
| QVQLVESGGGLVQAGGSLRLSCAASGSNFPHNAMGWYRQAPGKERELVAAITSSGGSTYYADSVKGRFTISRDNAKNTVYLQMNSLKPEDTAVYYCNKGKQRRRYNYWGQGTQVTVSS | high polyreactivity |
| QVQLVESGGGLVQAGGSLRLTCAASGSIFTGYTMGWYRQAPGKERELVASISRRGGRTYYADSVKGRFTISRDNAKNTVYLQMNSLKPEDTAVYYCAVDRVPWRYQDSYNYWGQGTQVTVSS | high polyreactivity |
| QVQLVEAGGGLVQAGGTLRLSCAASGYTFIYYAMGWYRQAPGKERELVATISIDGSTNYADSVKRRFTISRDNAKNTVYLQMNSLKPEDTAVYYCNRERYEDYDYWGQGTQVTVSS | high polyreactivity |
| QVQLVESGGGLVQAGGSLRLSCAASGFTFSLYTKGWYRQATGKERELVADISDGGITNYADSVKGRFTISRDNAKNTVYLQMHSLKPEDTAVYYCAADYQFLFFWNLFYEDYDYWGQGTQVTVSS | high polyreactivity |
| QVQLVESGGGLVQAGGSLRVSCAASGRTFKKYTMGLYRQAAGKERELVPVITSGGSTYYADSVKGRFTISRDNAKNTVYLQMNSLKPEDTAVYYWAADLYYNSYGRYGRYYYWGQGTQVTVSS | high polyreactivity |
| QVQLVESGGGLVQAGGSLRLSCAASGFIFSFYAMGWYRQAPGKERALVAAINWSGGSTYYADSVKGRFTISRDNAKNTVYIQMNSLKPEDTEVYYCNAVQYFSIPKPVWLFVLRYYYWGQGTQVTVSS | low polyreactivity |
| QVQLVESGGGLVQAGGSLRLSCAASGFTFRSNAMGWYRQAPGKERELVAAISYSGGDTYYADSVKGRFTISRDNAKNTVFLQMNSLKPEDTAVYYCAADDPASPLGEYWGQGTQVTVSS | low polyreactivity |
| QVQLVESAGGLVQAGGSLRLSCAASGSIFTTYTIVWYRQAPGKERELVAAITSSSGSTYYADSVKGRFTISRDNAKNTVYLQMNSLKPEDTAVYYCNATYSAAVDYWGQGTQVTVSS | low polyreactivity |
| QVQLVESGGGLVQAGGSLRLSCAASGRIFGWYAMGWYRQAPGKERELVAAISRSGGSTYYADSVKGRFTISRDNAKNTVYLQMNSLKPEDTAVCYCAAAFSLGMYWGQGTQVTVSS | high polyreactivity |
| QVQLQESGRRPGAAGGSPRMSCAASGNIFWVAVMGRYRQAPGKERELVASIGFGCTTYYADSVKCRFTISRDNAKKTVYLQMISLKPEDTAVYYCAAPNYDWGELDYWGQGTQVPVSS | low polyreactivity |
| QVQLVESGGGLVQAGGSLRLSCAASGSTFWLYVMGWYRQAPGKERELVAAISSSGGRTYYADSVKGRFTISRDNAKNTVYLQMNSLKPEDTAVYYCNKYGTALWRYYYWGQGTQVTVSS | high polyreactivity |
| QVQLVESGGGLVQAGGSLRLSCAASGRTLSRYTMGWYRQAPGKERELVAAISTSGSTYYADSVKGRFTISRDNAKNTVYFQMNSLKPEDTAVYYCNAVRRFLQYATGYDYWRQGTQVTVSS | high polyreactivity |
| QVQLVESGGGLVQAGGSLRLSCAASGRIFRFNAMGWYRQAPGKERELVAAITGSGGTTFYADSVKGRFTISRDNAKNTVYLQMNSLKPEDTAVYYCITLGNWRPVYNQPRYEYWGQGTQVTVSS | high polyreactivity |
| QVQLVESGGGLVQAGGSLRLSCAASGIIFYRYAMGWYRQAPGKERELVATIRRSDGSTYYADSVKGRFTISRDNAKNTVYLQMKSLKPVDTAVYYCAARRPYSSGYDYWGQGSQVTVSS | high polyreactivity |
| QVQLVESGGGLVQAGGSHRLSCAASGGTYITNAMGWYRQAPGKERELVAAITSGGRTTYADSVKGRFTISRDNAKNTVYLQMNSLKPEDTAVYYCAADHVYSYTYNFDYWGQGTLVTVSS | low polyreactivity |
| QVQLVESGGGLVQAGGSLRLSCAASGRTIWRYAMGWYRKAPGKERELVAAISWSGTSTYYADSVKGRFTISRDNAKNTVYLQMNSLKPEDTAVYYCAVAYPFYGKTLFSPQADYNYWGQGTQVTVSS | high polyreactivity |
| QVQLVESGGGLVQAGGSLRLSCAGSGRTFWANTMGWYIQAPGKEREFVAAISGRDVSTYYADSVKGRFTISRDNAKNTVFLQMNSLKPEDTAVYYCAAQWQYLGHMGYWGQGTQVTVSS | low polyreactivity |
| QVQLVESGGGLVQAGGSLRLSCAASGSTFLSYVMGWYRQAPGKERELVAAITGTGGRTYYADSVKGRFTISRDNAKNTVYLQMNSLKPEDSAVYYCTAYRKHGYDYWGQGTQVTVSS | high polyreactivity |
| QVQLVESGGGLVQAGGSLRLSCAASGSTFSYYAMGWYRQAPGKERELVAAISSSGGSTYYADSVKGRFTISRDNAKNTVYLQMNSLKPEDTAVYYCNADSWRRRGRSRYDHWGQGTQVTVSS | low polyreactivity |
| QVQLVESGGGLVQSGGSLRLSCAASGRTFYHYAMGWYRQAHGKERELVATITRNGGITYYADSVKGRFTISRDNAKNTVYLQMNSLKPEDTAVYYCIKRWGGPIQFDYWGQGTEVTVSS | low polyreactivity |

| Sequence | polyreactivity (PSR sort gate) |
| --- | --- |
| QVQLVESGGGLVQAGGSLRLSCAASGSIFFNNTKGWYRPAPGKERELVAAINWSGTSTYYADSVKGRFTISRDNAMNTVYLQMNSLKPEDTEVYYCAADVVRSNFDGTFLYDYDYWGLGTQVTVSS | low polyreactivity |
| QVQLVESGGGLVQAGGSLRLSCAASGINFRGYAMGWYRQAPGKERELVASITNTDSTYYADSVKGRFTISRDNAKNTVYLQMNSLKPEDTAVYYCAARRGRKYGYWGQGTQVTVSS | high polyreactivity |
| QVQLVESGGGLVLAGVSLRLSCAASGSTFPYNAMGWYRQAPGKERELVAAITSRGGSTYYADSVKGRFTISRDNAKNTVYLQMNSLKPEDTAVYYCATPGDTYGWTRRRYYYWGQGTQVTVSS | high polyreactivity |
| QVQLVESGGGLVQAGGSLRLSCAASGRTFRRYAMGWYRQAPGKERELVAAITSGGSTNYADSVKGRFTISRDNAKNNVYLQMNSLKPEDTAVYYCNARYFRGYDYWGQGTQVTVSS | high polyreactivity |
| QVQLVESGGGLVQAGGSLRLSCAASGSIFPGFAMGWYRQAPGKERELVAAISTSGGNTYYADSVKGRFTISRDNAKNTVYLQMNSLKPEDTAVYYCAVRHRLYTAGYDYWGQGTQVTVSS | low polyreactivity |
| QVQLVESGGGLVQAGGSLRLICAASGRISVFYTMGWYRQAPGKERELVAVIRTSGGRTNYADSVKGRFTISRDNAKNTVYLQMNSLKPEDTAVYYCAARVVRYGYKYYYWGQGTQVTVSS | low polyreactivity |
| QVQLVESGGGLVQAGGSLRLSCAPSGSTFGDNAMGWYRQAPGKERELVAAISSGGGSTYYADSVKGRFTISRDNAKNTVYLQMNSLKPEDTAVYYCAADGTLTLYRYILDYWGQGTQVTVSS | low polyreactivity |
| QVQLVESGGGLVQAGGSLRLSCAASGRIFGVYAMGWSRQAPGKERELGAGITDRGGRTYYADSVKGRFTISRDNAKNTVYLQMNSLKPEDTAVYYCNAGSLHRRYYYEGDYWGQGTQVTVSS | high polyreactivity |
| QVQLVESGGGLVQAGGSLRLSCAASGFTFATYAMGWYRQAPGKERELVAAISKSGGSTYYADSVKGRFTISRDNAKNTVYLQMNSLKPEDTAVYYCAKRRSVRYDYWGQGTQVTVSS | high polyreactivity |
| QVQLVESGGGLVQAGGSLRLSCAASGSTFTLNAMVWYRQAPGKERELVADISWSSGRTYYADSVKGRFTISRDNAKNTVYLQMNSLKPEVSAVYYCATYDFWKVKFYAYYPEFDYWGQGTQVTVSS | low polyreactivity |
| QVQLVESGGGLVQSGGSLRLSCAASGFTFPNNAMGWYRLAPGKERELVAAITWSGGSTYADSVKGRFTISRDNAKNTVYLQMNSLKPEETAVYFCNTRGTYLSKTLPSAYDYWGQGTQVTVSS | low polyreactivity |
| QVQLVESAGGLVQAGGSLRLSCAASGSTFIRYAMGWYRQAPGKERELVAAITRGGSTYYADSVKGRFTISRDNAKYTVYLQMNSLKPEDTAVYYCAAGYYGNGVFEYDYWGQGTQVTVSS | low polyreactivity |
| QVQLVESGGGLVQAGGSLRLSCAASGGIFSAYVMGWSRQAPGKERELVAAITRRGGSTYYADSVKGRFTISRDNAKNTVYLQMNSLKPEDTAVYYCAALLRGQDRTMDYWGQGTQVTVSS | high polyreactivity |
| QVQLVEAGGGFYQPGGSLRLSCAASGRTFSYYASGWYRQAPGKERELVAAITDSGDSTYYADSVKGRFTISRDNANNTVYLQMKSLKPEDTAVYDCAATTYSWYDYWGQGTQVTVSS | high polyreactivity |
| QVQLVESGGGLVQAGGSLRLSCAASGYIFVRYAMGWYRQAPGKERELVAAINSSRGRTYYADSVKGRFTISRDNAKNTVSLQMNSLKPEDTAVYYCGAYGYYRSGYRALEGYWGQGTQVTVSS | high polyreactivity |
| QVQLVESGGGLVQAGGSHRLSCAASGGIAGNTMGWYRQAPGKERELVAAITRSGGRTYYADSVKGRFTISRDNAKNTVYLQMNSLKPEDTAVYYCAVTGLVRRRYGYWGQGTQVTVSS | high polyreactivity |
| QVQLVESGGGLVQAGGSLRLSCAASGFTFPGYAMGWYRQAPGKERELVAAISYSSGSTYYADSVKGRFTISRDNAKNTVYLQMNSLKPEDTAVYYCNRVYRFRGITELDYWGQGTQVTVSS | high polyreactivity |
| QVQHVESGGGLVQAGGSLRLSCAASGYTFYIYAMGWYRQAHGKERELVATISSSGGGTYYADSVKGRFTISRDNAKNTVYLQMNSLTPEDTAVYYCNADGWYWQAQGYDYWGQGTQVTVSS | low polyreactivity |
| QVQLVESGGGLVQARGSLRLSCAGSGRTFGYYAMGWYRHAPGKERELVAAIDQSDTYYADSVKGRFTISRDNAKITVSLQMNSLKPEDTAVYYCAADGDPSIEDEYWGQGTQVTVSS | high polyreactivity |
| QVQLVESVGGLVQAGGSLRLSCAASGNTLVYYDMGWYRQAPGKERELVAAISWSTGSTYYADSVKGRFTISRDNAKNTVYLQMNSLKPEDTAVYYCAAEPELDEYEHDYWGQGTQVTVSS | low polyreactivity |
| QVQLVESGGGLVLAGGSLRLSCADSGLILRLNAMGWYRQAPGKDRELVATINRGGSTNYADSVKGRFTISRDNAKNTVFLQMNSLNPEDTAVDYCNKARTSQYHHTYWRTYGYWGQGTQVTVSS | low polyreactivity |
